Where two headings read alike, the source gives them in different places.

Common to all, as to assay: SPR
Test [1] deals with actin-binding domain (ABD) of α-catenin (human).
The target of test [2] is M domain of α-catenin (human).
Test [3] has as its target actin-binding domain (ABD) of α-catenin (human). This is another data set of the same source.

In the case of “β-catenin•epithelial cadherin cytoplasmic domain complex (BE) (from UniProt P35222;P12830)”, the Kd in test [1] was determined as 486 nM; in test [2], 104 nM; in test [3], 466 nM. The off-rate constant (koff) in test [2] is 0.0013 s⁻¹.

Source of the values: paper PMC6815173.
